Target: coagulation Factor VIII (human) (UniProt P00451)
Test: VWF:FVIIIB enzyme immunoassay; VWF of human plasma captured with rabbit anti-human VWF F(ab')2, bound FVIII detected; plasma pre-incubated 17 h at 37°C with 200 or 600 nM one-arm anti-VWF CK domain antibodies

Chain of UniProt P00451 (P00451 20-2351): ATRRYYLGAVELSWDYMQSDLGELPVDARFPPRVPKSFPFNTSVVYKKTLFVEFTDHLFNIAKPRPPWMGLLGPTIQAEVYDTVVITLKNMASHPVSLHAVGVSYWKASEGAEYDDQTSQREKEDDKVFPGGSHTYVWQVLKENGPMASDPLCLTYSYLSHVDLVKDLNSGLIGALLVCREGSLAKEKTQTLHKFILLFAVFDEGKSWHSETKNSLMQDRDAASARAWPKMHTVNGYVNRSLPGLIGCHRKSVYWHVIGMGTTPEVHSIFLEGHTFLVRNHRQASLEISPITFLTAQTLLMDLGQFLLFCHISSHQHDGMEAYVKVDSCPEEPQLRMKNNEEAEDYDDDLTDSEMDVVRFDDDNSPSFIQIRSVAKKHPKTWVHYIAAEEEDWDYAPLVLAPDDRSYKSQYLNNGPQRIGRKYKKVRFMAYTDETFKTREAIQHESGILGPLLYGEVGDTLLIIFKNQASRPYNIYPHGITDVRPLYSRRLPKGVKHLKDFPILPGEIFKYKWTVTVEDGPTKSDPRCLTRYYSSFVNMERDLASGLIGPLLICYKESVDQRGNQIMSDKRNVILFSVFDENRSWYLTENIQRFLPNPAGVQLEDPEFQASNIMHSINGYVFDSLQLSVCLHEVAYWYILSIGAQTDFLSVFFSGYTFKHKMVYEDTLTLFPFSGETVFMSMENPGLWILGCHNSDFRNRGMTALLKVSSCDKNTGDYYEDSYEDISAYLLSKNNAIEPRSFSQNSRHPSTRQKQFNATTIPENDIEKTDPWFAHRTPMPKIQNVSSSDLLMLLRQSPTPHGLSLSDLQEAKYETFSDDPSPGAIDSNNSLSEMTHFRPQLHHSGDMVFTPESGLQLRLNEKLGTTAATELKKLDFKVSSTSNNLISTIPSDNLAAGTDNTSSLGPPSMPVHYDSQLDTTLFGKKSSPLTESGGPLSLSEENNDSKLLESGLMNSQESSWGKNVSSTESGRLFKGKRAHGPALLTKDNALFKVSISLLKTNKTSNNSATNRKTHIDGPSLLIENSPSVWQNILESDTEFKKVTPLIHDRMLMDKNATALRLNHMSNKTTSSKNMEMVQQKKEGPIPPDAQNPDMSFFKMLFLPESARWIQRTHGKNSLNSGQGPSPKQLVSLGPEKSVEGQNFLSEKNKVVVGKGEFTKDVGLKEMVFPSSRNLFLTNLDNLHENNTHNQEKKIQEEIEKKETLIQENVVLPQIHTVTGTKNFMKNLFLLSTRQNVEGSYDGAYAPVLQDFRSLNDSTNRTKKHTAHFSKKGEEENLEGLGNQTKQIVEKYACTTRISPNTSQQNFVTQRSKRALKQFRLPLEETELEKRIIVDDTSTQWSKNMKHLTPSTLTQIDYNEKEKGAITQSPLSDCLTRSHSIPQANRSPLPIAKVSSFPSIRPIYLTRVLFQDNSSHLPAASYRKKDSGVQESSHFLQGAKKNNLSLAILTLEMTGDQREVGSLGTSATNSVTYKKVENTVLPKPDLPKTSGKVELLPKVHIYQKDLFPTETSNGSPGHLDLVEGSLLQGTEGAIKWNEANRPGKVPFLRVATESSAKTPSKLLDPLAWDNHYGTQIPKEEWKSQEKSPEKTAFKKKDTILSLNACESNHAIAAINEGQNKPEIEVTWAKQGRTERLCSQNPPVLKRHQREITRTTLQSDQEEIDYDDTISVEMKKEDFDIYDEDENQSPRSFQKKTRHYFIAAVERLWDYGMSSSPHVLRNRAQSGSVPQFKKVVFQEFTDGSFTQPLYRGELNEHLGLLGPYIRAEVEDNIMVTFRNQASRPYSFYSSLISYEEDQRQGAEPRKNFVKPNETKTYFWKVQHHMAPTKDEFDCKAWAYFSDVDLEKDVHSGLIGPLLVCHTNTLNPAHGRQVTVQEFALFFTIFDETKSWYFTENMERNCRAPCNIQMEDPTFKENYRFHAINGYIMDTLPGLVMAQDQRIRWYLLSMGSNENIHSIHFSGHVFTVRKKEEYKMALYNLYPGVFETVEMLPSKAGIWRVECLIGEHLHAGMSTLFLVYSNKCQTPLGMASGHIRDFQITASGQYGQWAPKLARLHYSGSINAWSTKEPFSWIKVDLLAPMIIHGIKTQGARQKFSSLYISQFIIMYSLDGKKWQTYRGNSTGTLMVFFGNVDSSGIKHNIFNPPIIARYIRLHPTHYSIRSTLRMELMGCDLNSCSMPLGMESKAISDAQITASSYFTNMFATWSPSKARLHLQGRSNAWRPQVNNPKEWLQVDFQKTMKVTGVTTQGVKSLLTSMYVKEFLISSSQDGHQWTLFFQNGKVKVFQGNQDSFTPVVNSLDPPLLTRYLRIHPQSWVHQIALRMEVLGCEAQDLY

mean level of VWF:FVIII relative to untreated donor-matched plasma: > 80%
Substance: human plasma-derived VWF (from UniProt P04275 764-2813)
